According to article PMC6768852, “The structural basis for RNA selectivity by the IMP family of RNA-binding proteins”:

Assays:
IMP2 KH34 (NMR) [1] = biological target: T1, IMP2 KH34 (NMR) (UniProt Q9Y6M1 425-581); experiment: NMR titration; bound by KH4, intermediate exchange; EMSA: 100 pM RNA, 10 mM Tris, 100 mM NaCl, 0.1 mM EDTA, 0.01 mg/mL tRNA, 50 ug/mL heparin, 0.01% IGEPAL CA630, room temperature, 3 h; pH not stated; conditions: protein: recombinant; tags: 6xHis
IMP2 KH34 (NMR) [2] = biological target: T1, IMP2 KH34 (NMR); experiment: NMR titration; bound by KH3, fast exchange; EMSA: 100 pM RNA, 10 mM Tris, 100 mM NaCl, 0.1 mM EDTA, 0.01 mg/mL tRNA, 50 ug/mL heparin, 0.01% IGEPAL CA630, room temperature, 3 h; pH not stated; conditions: protein: recombinant; tags: 6xHis
IMP2 KH34 [3] = biological target: T2, IMP2 KH34 (UniProt Q9Y6M1 425-581); experiment: EMSA; tenfold higher affinity than WT zipcode; EMSA: 100 pM RNA, 10 mM Tris, 100 mM NaCl, 0.1 mM EDTA, 0.01 mg/mL tRNA, 50 ug/mL heparin, 0.01% IGEPAL CA630, room temperature, 3 h; pH not stated; conditions: protein: recombinant; tags: MBP
IMP2 KH34 [4] = biological target: T2, IMP2 KH34; experiment: EMSA; EMSA: 100 pM RNA, 10 mM Tris, 100 mM NaCl, 0.1 mM EDTA, 0.01 mg/mL tRNA, 50 ug/mL heparin, 0.01% IGEPAL CA630, room temperature, 3 h; pH not stated; conditions: protein: recombinant; tags: MBP
ZBP1 KH34 [5] = biological target: T3, ZBP1 KH34 (UniProt Q9NZI8 405-553); experiment: EMSA; text: tight to IMP2 and not to ZBP1; EMSA: 100 pM RNA, 10 mM Tris, 100 mM NaCl, 0.1 mM EDTA, 0.01 mg/mL tRNA, 50 ug/mL heparin, 0.01% IGEPAL CA630, room temperature, 3 h; pH not stated; conditions: protein: recombinant; tags: MBP
ZBP1 KH34 [6] = biological target: T3, ZBP1 KH34; experiment: EMSA; EMSA: 100 pM RNA, 10 mM Tris, 100 mM NaCl, 0.1 mM EDTA, 0.01 mg/mL tRNA, 50 ug/mL heparin, 0.01% IGEPAL CA630, room temperature, 3 h; pH not stated; conditions: protein: recombinant; tags: MBP

T3 sequence (Q9NZI8 405-553): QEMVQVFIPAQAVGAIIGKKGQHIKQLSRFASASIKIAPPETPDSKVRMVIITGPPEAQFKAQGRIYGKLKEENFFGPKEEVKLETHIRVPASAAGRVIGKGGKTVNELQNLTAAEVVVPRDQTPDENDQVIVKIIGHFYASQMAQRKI
T2 sequence (Q9Y6M1 425-581): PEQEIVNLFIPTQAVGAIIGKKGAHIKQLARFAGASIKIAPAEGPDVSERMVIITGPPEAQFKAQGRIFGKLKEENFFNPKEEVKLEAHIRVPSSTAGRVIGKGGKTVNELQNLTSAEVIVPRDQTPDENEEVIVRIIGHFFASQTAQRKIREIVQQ
T1 sequence (Q9Y6M1 425-581): as above

Binder: UUUGGAAC (ssRNA) [GG element RNA (3' RE)]
- binding result (IMP2 KH34 (NMR) [1]): binds

Binder: CCCUCACC (ssRNA) [CA element RNA (5' RE)]
- binding result (IMP2 KH34 (NMR) [2]): binds

Binder: ACCGGACUGUUACCAACACCCUCACCCC (ssRNA) [C28 A22U]
- binding result (IMP2 KH34 [3]): binds

B1: SELEX RNA #1 WT (ssRNA)
RNA: GGGCAGAGCGACGCAGUUUAGCGGCCUCAGCGAACCCUUUGGAACACUUCUCGAUAGUUGCGUGCGUCCAAA
- binding result (IMP2 KH34 [4]): binds
- binding result (ZBP1 KH34 [5]): no binding

Binder: ACCGGACUGUUACCAACACCCACACCCC (ssRNA) [C28 beta-actin zipcode WT]
- Kd (ZBP1 KH34 [6]): 15 ± 4.9 nM
- Kd (IMP2 KH34 [4]): 161 ± 25 nM

B2: SELEX RNA #2 (ssRNA)
RNA: GGGCAGAGCGACGCAGUUUAGCCUGUGUAUACAGCGAACCCUUAGGAUGAUCGAUAGUUGCGUGCGUCGAAA
- binding result (IMP2 KH34 [4]): binds
- binding result (ZBP1 KH34 [5]): no binding
